Blank lines part the entries; values can stand above or below the binder they belong to.
Assays:
[1] = target: T1, KRAS G12V peptide on HLA-DRB1*11:01 (human); assay: cytokine release
T1 peptide: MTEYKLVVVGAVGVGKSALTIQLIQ
Protocol: (§1) ELISA assays were performed by incubating 50,000 T cells in 96 well round bottom plates with 100,000 autologous B cells or B-LCL lines pulsed with specific concentrations of peptides in RPMI (GIBCO™) supplemented with 5% heat inactivated fetal bovine serum. IFN-γ in supernatants was diluted 1:1, 1:10, and 1:100 and quantitated using human IFN-γ ELISA kit (EBIOSCIENCE™) in technical duplicate or triplicate. HLA blocking experiments were carried out by adding 20 μg/ml antibody anti class I (BIOLEGEND®, cat. 311411) anti HLA DR (BIOLEGEND® clone L243, cat. 307611) or HLA-DQ (ABCAM™, clone spv-I3, cat. ab23632) to the antigen presenting cells one hour prior to adding peptide. ELISpot assays were performed by incubating 20,000-100,000 T cells with 200,000 autologous B cells pulsed with 20 μg/ml of each peptide in CTL medium using the human IFN-γ ELISPOT-PRO™ kit (MABTECH™) according to the manufacturer's instructions. For intracellular IFN-γ staining, PBMC (100,000) were incubated with autologous B cells (100,000) pulsed with the indicated peptides (20 μg/ml) in the presence of brefeldin A (GOLGIPLUG™, BD BIOSCIENCES™) and then fixed and permeabilized using the BD™ intracellular staining kit (BD BIOSCIENCES™) and analyzed using a FACSCANTO™ II flow cytometer.

[2] = target: T2, KRAS G12V peptide on HLA-DRB1*11:04 (human); assay: cytokine release
T2 peptide: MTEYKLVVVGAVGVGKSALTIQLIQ
Protocol: as §1

binding result [1]: recognises
binding result [2]: recognises
B1: KRAS G12V clone 3 TCR (TCR, V domains shown)
Valpha: AQSVTQPDIHITVSEGASLELRCNYSYGATPYLFWYVQSPGQGLQLLLKYFSGDTLVQGIKGFEAEFKRSQSSFNLRKPSVHWSDAAEYFCAVGRSNSGGYQKVTFGIGTKLQVIP
Vbeta: IHQWPATLVQPVGSPLSLECTVEGTSNPNLYWYRQAAGRGLQLLFYSVGIGQISSEVPQNLSASRPQDRQFILSSKKLLLSDSGFYLCAWSALAGARDTQYFGPGTRLTVL

binding result [1]: recognises
binding result [2]: recognises
B2: KRAS G12V clone 9 TCR (TCR, V domains shown)
Valpha: SVSQHNHHVILSEAASLELGCNYSYGGTVNLFWYVQYPGQHLQLLLKYFSGDPLVKGIKGFEAEFIKSKFSFNLRKPSVQWSDTAEYFCAVTVVNAGNNRKLIWGLGTSLAVNP
Vbeta: AGVIQSPRHEVTEMGQEVTLRCKPISGHDYLFWYRQTMMRGLELLIYFNNNVPIDDSGMPEDRFSAKMPNASFSTLKIQPSEPRDSAVYFCASSLGLPGTDTQYFGPGTRLTVL
